{"source": "paper doi:10.1101/2025.06.13.659407", "about": "(2025)", "molecular_target": "biotinylated preS1 peptide, residues 69–108 (hepatitis B virus (residues numbered …, C-terminal biotin))", "assay": "BLI"}
{"binder": "sEGF4–6-hFc (soluble fusion protein comprising SCARF2's EGF4–6 domains, with an N-terminal HA tag an (Fc fusion) GSYPYDVPDYAGSSACYCSATSRCDPQTGACLCHAGWWGRSCNNQCACNSSPCEQQSGRCQCRERTFGARCDRYCQCFRGRCHPVDGTCACEPGYRGKYCR", "values": [{"measurement": "koff", "result": 0.000289, "unit": "s⁻¹"}]}
